This is an account of results in patent US7985835B2, “Bioactive peptides and peptide derivatives of parathyroid hormone (PTH) and parathyroid hormone-related peptide (PTHrP)” (The General Hospital Corporation, priority 1998, dated 2011).

Assay [1] deals with T1, human PTH-1 receptor (Homo sapiens, UniProt Q03431).
T1 sequence (Q03431 27-593): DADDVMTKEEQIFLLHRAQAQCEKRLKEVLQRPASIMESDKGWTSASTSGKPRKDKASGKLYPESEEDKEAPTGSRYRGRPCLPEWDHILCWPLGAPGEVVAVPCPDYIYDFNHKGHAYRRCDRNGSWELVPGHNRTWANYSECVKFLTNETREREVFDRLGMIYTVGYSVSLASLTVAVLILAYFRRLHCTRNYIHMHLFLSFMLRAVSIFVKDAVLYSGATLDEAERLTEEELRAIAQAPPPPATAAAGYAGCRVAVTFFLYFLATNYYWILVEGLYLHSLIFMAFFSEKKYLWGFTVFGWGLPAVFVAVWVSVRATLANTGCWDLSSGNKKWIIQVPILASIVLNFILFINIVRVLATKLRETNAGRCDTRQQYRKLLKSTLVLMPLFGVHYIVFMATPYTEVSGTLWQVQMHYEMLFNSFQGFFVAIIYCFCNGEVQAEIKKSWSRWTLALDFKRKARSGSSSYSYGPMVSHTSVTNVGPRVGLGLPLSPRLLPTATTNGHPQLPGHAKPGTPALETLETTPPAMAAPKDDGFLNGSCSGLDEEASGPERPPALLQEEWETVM
Briefly: cAMP in LLC-PK1 cells stably transfected with the human PTH-1 receptor (LLC-B7 cells). It is filed as cell-based. Further details: expressed in transfected cells. The procedure:
FIG. 3. cAMP dose response curves of short amino-terminal PTH analogs in LLC-PK1 cells stably transfected with the human PTH-1 receptor (LLC-B7 cells). LLC-B7 cells in 24 plates were treated with the indicated peptides for 60 mins at 21° C., and then intracellular cAMP levels were measured. All PTH peptides shown are based on the rat PTH sequence and are carboxy-terminally amidated.
FIG. 7. cAMP activity of [Ile5]PTHrP(1-14). LLC-B7 cells were treated with the indicated peptide ligand, each at 100 μM, and then intracellular cAMP levels were measured.
Intracellular cAMP accumulation was measured as described previously (Abou-Samra et al., J. Biol. Chem. 262:1129, 1986). Cells in 24-well plates were rinsed with culture medium containing 0.1% BSA and 2 mM IBMX. The cells were then incubated with compounds of SEQ ID NO: 1 or derivatives thereof for 60 min. at 21° C. […] Intracellular cAMP was extracted by thawing the cells in 1 ml of 50 mM HCl and analyzed by a specific radioimmunoassay using an anti-cAMP antibody (e.g., Sigma, St. Louis, Mo.). […] The supernatant was removed and the bound radioactivity was counted in a gamma-counter (Micromedic). […]
The analysis extends to the PTHrP(1-14) sequence as well. […] LLC-B7 cells were treated with the indicated peptide ligand, each at 100 μM, and then intracellular cAMP levels were measured.

Assay [2] deals with T1, human PTH-1 receptor. The assay can be described thus: cAMP accumulation in COS-7 cells expressing the cloned human PTH-1 receptor. It counts as cell-based. Further details: expressed in transfected cells; host or cells: COS-7. To be noted: for stimulation of cAMP formation: COS-7 cells expressing cloned human PTH-1 receptor, peptides at 67 μM, 30 minutes at 21° C. The procedure: FIG. 1. Bioactivity of amino-terminal and carboxy-terminal fragments of PTH(1-34). Fragments of parathyroid hormone were synthesized by chemical methods and purified by reverse-phase HPLC. Peptides were tested for the ability to stimulate cAMP accumulation in COS-7 cells expressing the cloned human PTH-1 receptor. PTH(1-34) was tested at a dose of 1 μM, other peptides were tested at 67 μM. Peptides were tested in duplicate (±s.e.m.) at a dose of 67 μM. The cAMP in control untreated cells is indicated by Bsl. Cells were treated for 30 minutes at 21° C.
FIG. 2. Alanine-scan of PTH(1-14). Shown are the bioactivities of 14 different PTH(1-14) derivatives, each having a different amino acid of the native sequence (shown at bottom of figure) (SEQ ID NO:14) replaced by alanine. Peptides were chemically synthesized, purified and tested for ability to stimulate cAMP formation in COS-7 cells expressing the cloned human PTH-1 receptor. Peptides were tested in duplicate (±s.e.m.) at a dose of 67 μM. As a control, untreated cells, indicated by basal, were measured. The PTH(1-14) containing alanine at position 1 was used as the wild-type reference. Cells were stimulated for 30 minutes at 21° C.
Intracellular cAMP accumulation was measured as described previously (Abou-Samra et al., J. Biol. Chem. 262:1129, 1986). Cells in 24-well plates were rinsed with culture medium containing 0.1% BSA and 2 mM IBMX. The cells were then incubated with compounds of SEQ ID NO: 1 or derivatives thereof for 60 min. at 21° C. The supernatant was removed and the cells immediately frozen by placing the whole plate in dry ice powder. Intracellular cAMP was extracted by thawing the cells in 1 ml of 50 mM HCl and analyzed by a specific radioimmunoassay using an anti-cAMP antibody (e.g., Sigma, St. Louis, Mo.). A cAMP analog (2′-O-monosuccinyl-adenosine 3′:5′-cyclic monophosphate tyrosyl methyl ester, obtained from Sigma) which was used a tracer for cAMP was iodinated by the chloramine T method. Free iodine was removed by adsorbing the iodinated cAMP analog onto a C18 Sep-pak cartridge (Waters, Milford, Mass.). After washing with dH20, the iodinated cAMP analog was eluted from the Sep-pak Cartridge with 40% acetonitrille (ACN) and 0.1% trifluoroacetic acid (TFA). The iodinated cAMP analog was lyophilized, reconstituted in 1 ml 0.1% TFA, and injected into a C18 reverse phase HPLC column (Waters). The column was equilibrated with 10% ACN in 0.1% TFA, and eluted with gradient of 10-30% ACN in 0.1% TFA. This allows separation of the mono-iodinated cAMP analog from the non-iodinated cAMP analog. The tracer is stable for up to 4 months when stored at −20° C. […] The supernatant was removed and the bound radioactivity was counted in a gamma-counter (Micromedic). […]

In assay [3] the target is T2, rat secretin receptor (rSR) (Rattus norvegicus, UniProt P23811).
T2 construct: expressed in transfected cells; host or cells: COS-7
The assay can be described thus: cAMP in COS-7 cells transfected with rat secretin receptor (specificity). It is filed as cell-based. The note with it: COS-7 cells transfected with rSR; FIG. 6. As to the method:
FIG. 6. Specificity of PTH(1-14). […] Thus, the response to PTH(1-14) is dependent on the presence of the PTH-1 receptor.
(§1) PTH(1-14) specificity was also tested using the porcine renal cell line LLC-PK1, either untransfected or stably transfected with the human PTH-1 receptor, the LLC-B7 cell line.

Assay [4] relates to untransfected LLC-PK1 cells. The assay can be described thus: cAMP dose response in LLC-B7 cells versus untransfected LLC-PK1 cells. It is filed as cell-based, porcine. To be noted: LLC-B7 cells vs untransfected LLC-PK1 cells; FIG. 4. As to the method: FIG. 4. cAMP dose response curves of PTH(1-14) in LLC-B7 cells and in untransfected LLC-PK1 cells. PTH(1-14) and PTH(1-34) control peptides were tested as in FIG. 3.
as §1

The subject of assay [5] is PTH. The note with it: in vitro; cited from earlier work.
The test system of assay [6] is AC. To be noted: cited from earlier work.
The subject of assay [7] is the receptor. The note with it: cited from earlier work.
The target of assay [8] is T3, rat PTH-1 receptor (Rattus norvegicus, UniProt P25961).
T3 sequence (P25961 27-591): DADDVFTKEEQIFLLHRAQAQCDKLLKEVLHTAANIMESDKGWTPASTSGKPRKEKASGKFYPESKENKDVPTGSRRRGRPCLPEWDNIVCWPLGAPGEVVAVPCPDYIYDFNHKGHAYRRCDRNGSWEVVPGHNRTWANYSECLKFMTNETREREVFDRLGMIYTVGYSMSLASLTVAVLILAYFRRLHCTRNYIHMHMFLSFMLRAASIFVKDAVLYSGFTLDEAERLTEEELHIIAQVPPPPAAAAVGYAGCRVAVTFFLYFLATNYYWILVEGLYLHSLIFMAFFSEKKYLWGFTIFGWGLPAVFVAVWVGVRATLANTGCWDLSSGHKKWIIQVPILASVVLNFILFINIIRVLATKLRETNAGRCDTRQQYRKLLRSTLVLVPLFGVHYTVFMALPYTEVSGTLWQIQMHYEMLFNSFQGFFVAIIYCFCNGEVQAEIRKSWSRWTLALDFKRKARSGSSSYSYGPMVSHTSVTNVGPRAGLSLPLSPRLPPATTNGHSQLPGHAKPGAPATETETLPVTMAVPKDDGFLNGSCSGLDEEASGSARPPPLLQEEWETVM
To be noted: CHO cells expressing cloned rat PTH-1 receptor; cited from earlier work.

Assay [9] deals with rat renal membranes. The note with it: cited from earlier work.

“Also recorded” adds a separate entry of the source. Ends that are not written are not given here.

T2 sequence (P23811 26-449): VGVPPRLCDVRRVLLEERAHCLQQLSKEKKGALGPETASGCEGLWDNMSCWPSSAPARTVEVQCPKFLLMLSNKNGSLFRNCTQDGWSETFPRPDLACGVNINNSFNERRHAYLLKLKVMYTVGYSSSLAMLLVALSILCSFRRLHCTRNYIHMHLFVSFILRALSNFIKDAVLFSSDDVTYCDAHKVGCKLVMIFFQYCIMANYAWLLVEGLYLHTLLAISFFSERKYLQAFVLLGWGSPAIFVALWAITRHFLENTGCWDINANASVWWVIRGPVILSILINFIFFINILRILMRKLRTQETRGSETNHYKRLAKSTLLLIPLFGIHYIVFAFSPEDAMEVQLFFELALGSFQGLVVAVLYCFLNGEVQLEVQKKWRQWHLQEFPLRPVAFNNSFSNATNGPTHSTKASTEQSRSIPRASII

On to AVSEIQLLHDKGKS [[Ile^5] PTHrP(1-14)], for which, in assay [1] (each peptide at 100 μM, FIG. 7), the “cAMP activity, potency relative to native PTHrP(1-14)” value was “enhanced potency, relative to native PTHrP(1-14)”.

Consider AVSEIQLMH [[Ala^1] PTH(1-9)], for which the “stimulation of cAMP formation” value in assay [2] (FIG. 1) is on record as “small cAMP response; also recorded: exhibits some biological activity”.

As for “AlaValSerGluIleGlnLeuMetHisAsnLeuGlyLysHis (AVSEIQLMHNLGKH-NH2) [[Ala^1] PTH(1-14)]”, the “activity relative to native PTH(1-34)” value in assay [2] (FIG. 1, PTH(1-34) at 1 μM, other peptides at 67 μM) is on record as “weaker than native PTH(1-34)”. Further, the “bioactivity relative to native PTH(1-14)” value in [2] (Ser1 to Ala substitution, compared with native PTH(1-14) peptide) is recorded as “measurable increase in bioactivity over the background level of bioactivity of the native PTH(1-14) peptide”.

On to “PTH(1-13): PTH variant truncated by one amino acid at the C-terminus, residues 1-13; rat PTH sequence (AVSEIQLMHNLGK)”, for which the “cAMP dose response activity” value in assay [1] (60 mins at 21° C., rat PTH sequence, carboxy-terminally amidated, FIG. 3) is “only very weak activity”.

With “PTH(1-14): 1-14 fragment of PTH; peptides in FIG. 3 are based on the rat PTH sequence (alanine at position 1) (SVSEIQLMHNLGKH)”, the “stimulation of cAMP in cells expressing rat secretin receptor” value in assay [3] was “inactive; also recorded: does not stimulate cAMP”. For the same substance, the “dependence of cAMP response on PTH-1 receptor” value in assay [4] is “dependent on PTH-1 receptor expression; also recorded: completely dependent on the presence of the PTH-1 receptor”.

“PTH(3-34): synthetic analog of bovine PTH (SEIQFMHNLGKHLSSMERVEWLRKKLQDVHNF; Parathyroid hormone; UniProt P01268 34-65, looked up, fragment)”: in assay [5], the PTH antagonist activity entry is listed as “potent PTH antagonist in vitro”.

As to “PTH(15-31): carboxy-terminal fragment of PTH(1-34) (LNSMERVEWLRKKLQDV; Parathyroid hormone; UniProt P01270 46-62, looked up, fragment) [reference compound]”, the “stimulation of cAMP formation” value in [2] (FIG. 1) was “inactive”.

On to PTH(15-34): PTH(15-34) fragment, for which the “activation of AC” value in assay [6] is given as “does not activate AC”. The receptor binding result in assay [7] was “binds weakly”.

With “PTHrP(1-16): short NH2-terminal PTHrP peptide investigated previously (AVSEHQLLHDKGKSIQ; Parathyroid hormone-related protein; UniProt P12272 37-52, looked up, fragment)”, the AC activity result in assay [8] is “inactive”.

Take “bPTH(1-12): short NH2-terminal PTH peptide investigated previously (AVSEIQFMHNLG; Parathyroid hormone; UniProt P01268 32-43, looked up, fragment)”: in assay [9], the adenylyl cyclase activity entry is “inactive”.

Consider “secretin (1-27): control native secretin (1-27) [reference compound]”, for which the “stimulation of cAMP in cells expressing rat secretin receptor” value in assay [3] is “responds fully”.
